Patent publication US20250263470A1
Numbering of substitutions follows the chain as printed.

B1: FBD-56 (antibody, V domains shown)
VH: EVQLVESGGHLVQPGRSLRLSCAASGFTFEDYAMNWVRQAPGKGLEWVSVISWDSGRIGYADSVKGRFTISRDNAKNSSYLQMNSLRPEDTALYYCVRDMLAYYSDNSGKKYNVYGMDVWGQGTTVTVSS
VL: EIVLTQSPATLSLSPGERATLSCRASQSVSTFLAWYQQKPGQAPRLLMYDASNRATGIPARFSGSGSGTDFTLTISSLEPEDFAIYYCQQRSHWPPIFGQGTRLEIK
B2: FBD-94 (antibody, V domains shown)
VH: EVQLVESGGGLVQPGRSLRLSCAVSGFIFEDYAINWVRQAPGKGLEWVSIISWDSGRIGYADSVRGRFTISRDNAKNSSFLQMNSLRPEDTAVYYCVKDMLAYYYDGSGIRYNLYGMDVWGQGTTVTVSS
VL: B1 VL with Q27R, V29I, S30T, M48I, I58V, S76N, E81D, S92D
B3: FBC-39 (antibody, V domains shown)
VH: EVQLVVSGGGLVKPGGSLRLSCAASGLSFLNAWMSWVRQAPGKGLEWVGRIKSNTDGGTTDYAAPVKGRFSISRDDSKNMLFLHMSSLRTEDTAVYYCATDGPYSDDFRSGYAARYRYFGMDVWGQGTTVTVSS
VL: DIQMTQSPSSVSASVGDRVTITCRASQDISTWLAWYQQKPGKAPKLLIYAASSLQSGVPSRFSGSGSGTDFTLTISSLQPEDFATYFCQQANSFPPTFGQGTKLEIK
B4: FBC-39 FSL (antibody, V domains shown)
VH: B3 VH with V6E, L27F, S71T, M80T, F82Y, H84Q, R89K, A99T
VL: B3 VL with F87Y
B5: FBC-39 FSS (antibody, V domains shown)
VH: B3 VH with V6E, L27F, L30S, S71T, M80T, F82Y, H84Q, R89K, A99T
VL: B3 VL with F87Y
B6: FBC-39 FTL (antibody, V domains shown)
VH: B3 VH with V6E, L27F, S28T, S71T, M80T, F82Y, H84Q, R89K, A99T
VL: B3 VL with F87Y
B7: FBC-39 LTS (antibody, V domains shown)
VH: B3 VH with V6E, S28T, L30S, S71T, M80T, F82Y, H84Q, R89K, A99T
VL: B3 VL with F87Y
B8: FBC-39 LTL (antibody, V domains shown)
VH: B3 VH with V6E, S28T, S71T, M80T, F82Y, H84Q, R89K, A99T
VL: B3 VL with F87Y
B9: FBC-39 LSL (antibody, V domains shown)
VH: B3 VH with V6E, S71T, M80T, F82Y, H84Q, R89K, A99T
VL: B3 VL with F87Y

What was measured:
[1] = target: recombinant HA derived from Victoria lineage strain B/BNE/08 (B/Brisbane/60/2008) (influenza B virus B/Brisbane/60/2008); experiment: ELISA on coated recombinant HA, average of three experiments
[2] = target: recombinant HA derived from Yamagata lineage strain B/FLA/06 (B/Florida/4/2006) (influenza B virus B/Florida/4/2006); experiment: as above
[3] = target: HA of influenza B virus B/Lee/40 (influenza B virus B/Lee/40) (UniProt P03460); experiment: cell-based or functional assay
[4] = target: HA of influenza B virus B/Malaysia/2506/2004 (victoria) (influenza B virus B/Malaysia/2506/2004); experiment: cell-based or functional assay
[5] = target: HA of influenza B virus ca B/Ann Arbor/1/66 (influenza B virus B/Ann Arbor/1/66); experiment: cell-based or functional assay
[6] = target: HA of influenza B virus ca B/Beijing/243/97 (victoria) (influenza B virus B/Beijing/243/97); experiment: cell-based or functional assay
[7] = target: HA of influenza B virus ca B/Yamanashi/166/98 (yamagata) (influenza B virus B/Yamanashi/166/98); experiment: cell-based or functional assay
[8] = target: HA of influenza B virus ca B/Johannesburg/5/99 (yamagata) (influenza B virus B/Johannesburg/5/99); experiment: cell-based or functional assay
[9] = target: HA of influenza B virus ca B/Brisbane/60/2008 (victoria) (influenza B virus B/Brisbane/60/2008); experiment: cell-based or functional assay
[10] = target: HA of influenza B virus B/Hong Kong/330/2001 (victoria) (influenza B virus B/Hong Kong/330/2001); experiment: cell-based or functional assay
[11] = target: HA of influenza B virus ca B/Ann Arbor/2/94 (yamagata) (influenza B virus B/Ann Arbor/2/94); experiment: cell-based or functional assay
[12] = target: HA of influenza B virus B/Hong Kong/5/72 (influenza B virus B/Hong Kong/5/72); experiment: cell-based or functional assay
[13] = target: HA of influenza B virus ca B/Victoria/504/2000 (yamagata) (influenza B virus B/Victoria/504/2000); experiment: cell-based or functional assay
[14] = target: HA of influenza B virus B/Yamagata/16/88 (yamagata) (influenza B virus B/Yamagata/16/88); experiment: cell-based or functional assay
[15] = target: HA of influenza B virus B/Shanghai/361/02 (yamagata) (influenza B virus B/Shanghai/361/02); experiment: cell-based or functional assay
[16] = target: HA of influenza B virus ca B/Georgia/02/98 (yamagata) (influenza B virus B/Georgia/02/98); experiment: cell-based or functional assay
[17] = target: HA of influenza B virus B/Sichuan/379/99 (yamagata) (influenza B virus B/Sichuan/379/99); experiment: cell-based or functional assay
[18] = target: HA of influenza B virus B/Ohio/1/2005 (victoria) (influenza B virus B/Ohio/1/2005); experiment: cell-based or functional assay
[19] = target: recombinant HA derived from Victoria lineage strain B/BNE/08 (B/Brisbane/60/2008) (influenza B virus B/Brisbane/60/2008); experiment: ELISA on coated recombinant HA, unpurified IgG
[20] = target: recombinant HA derived from Yamagata lineage strain B/FLA/06 (B/Florida/4/2006) (influenza B virus B/Florida/4/2006); experiment: ELISA on coated recombinant HA, unpurified IgG
[21] = target: recombinant HA derived from influenza A subtype H9 (A/chicken/HK/G9/97 (H9N2)) (influenza A virus A/chicken/Hong Kong/G9/97 (H9N2)); experiment: ELISA on coated recombinant H9 HA

Binder | EC50 [1] | EC50 [2] | Neutralization (Ave IC50 ug/ml) [3] | Neutralization (Ave IC50 ug/ml) [4] | Neutralization (Ave IC50 ug/ml) [5] | Neutralization (Ave IC50 ug/ml) [6] | Neutralization (Ave IC50 ug/ml) [7] | Neutralization (Ave IC50 ug/ml) [8] | Neutralization (Ave IC50 ug/ml) [9] | Neutralization (Ave IC50 ug/ml) [10] | Neutralization (Ave IC50 ug/ml) [11] | Neutralization (Ave IC50 ug/ml) [12] | EC50 [19] | EC50 [20] | EC50 [21] | Neutralization (Ave IC50 ug/ml) [17] | also measured
B1 | 0.03 µg/mL | 0.024 µg/mL | 0.004 µg/mL | 0.058 µg/mL | 0.035 µg/mL | 0.016 µg/mL | 0.133 µg/mL | 0.021 µg/mL | 0.01 µg/mL | 0.038 µg/mL | 1.25 µg/mL | 0.051 µg/mL | – | – | – | – | –
B2 | 0.016 µg/mL | 0.013 µg/mL | 0.009 µg/mL | 0.023 µg/mL | 0.014 µg/mL | 0.005 µg/mL | 0.012 µg/mL | 0.012 µg/mL | 0.006 µg/mL | 0.021 µg/mL | 0.891 µg/mL | 0.017 µg/mL | – | – | – | – | Hemagglutination Inhibition Titer [13]: 8 nM; Hemagglutination Inhibition Titer [3]: 1 nM; Hemagglutination Inhibition Titer [4]: 10 nM; Hemagglutination Inhibition Titer [14]: 250 nM; Hemagglutination Inhibition Titer [15]: 0 nM; Hemagglutination Inhibition Titer [5]: 10 nM; Hemagglutination Inhibition Titer [6]: 10 nM; Hemagglutination Inhibition Titer [7]: 10 nM; Hemagglutination Inhibition Titer [8]: 10 nM; Hemagglutination Inhibition Titer [9]: 4 nM; Hemagglutination Inhibition Titer [16]: 8 nM; Hemagglutination Inhibition Titer [10]: 10 nM; Hemagglutination Inhibition Titer [11]: 5 nM; Hemagglutination Inhibition Titer [17]: 5 nM; Hemagglutination Inhibition Titer [12]: 3 nM; Hemagglutination Inhibition Titer [18]: 10 nM
B3 | 0.048 µg/mL | 0.02 µg/mL | 0.021 µg/mL | 0.079 µg/mL | 0.061 µg/mL | 0.218 µg/mL | 0.039 µg/mL | 0.304 µg/mL | 0.238 µg/mL | 0.142 µg/mL | 0.027 µg/mL | 0.026 µg/mL | 0.186 µg/mL | 0.022 µg/mL | 6.2 µg/mL | 0.034 µg/mL | Hemagglutination Inhibition Titer [13]: 16 nM; Hemagglutination Inhibition Titer [3]: 5 nM; Hemagglutination Inhibition Titer [4]: 20 nM; Hemagglutination Inhibition Titer [14]: 11 nM; Hemagglutination Inhibition Titer [15]: 16 nM; Hemagglutination Inhibition Titer [5]: 6 nM; Hemagglutination Inhibition Titer [6]: 14 nM; Hemagglutination Inhibition Titer [7]: 13 nM; Hemagglutination Inhibition Titer [8]: 18 nM; Hemagglutination Inhibition Titer [9]: 20 nM; Hemagglutination Inhibition Titer [16]: 16 nM; Hemagglutination Inhibition Titer [10]: 16 nM; Hemagglutination Inhibition Titer [11]: 6 nM; Hemagglutination Inhibition Titer [17]: 10 nM; Hemagglutination Inhibition Titer [12]: 8 nM; Hemagglutination Inhibition Titer [18]: 24 nM
B4 | – | – | 0.011 µg/mL | 0.076 µg/mL | 0.034 µg/mL | 0.195 µg/mL | 0.009 µg/mL | – | 0.08 µg/mL | 0.132 µg/mL | 0.023 µg/mL | 0.019 µg/mL | 0.273 µg/mL | 0.014 µg/mL | – | 0.022 µg/mL | –
B5 | – | – | – | – | – | – | – | – | – | – | – | – | > 1 µg/mL | 0.019 µg/mL | – | – | –
B6 | – | – | 0.013 µg/mL | 0.074 µg/mL | 0.026 µg/mL | 0.134 µg/mL | 0.007 µg/mL | – | 0.098 µg/mL | 0.121 µg/mL | 0.023 µg/mL | 0.022 µg/mL | 0.118 µg/mL | 0.017 µg/mL | 46.1 µg/mL | 0.023 µg/mL | –
B7 | – | – | – | – | – | – | – | – | – | – | – | – | > 1 µg/mL | 0.013 µg/mL | – | – | –
B8 | – | – | 0.01 µg/mL | 0.076 µg/mL | 0.023 µg/mL | 0.152 µg/mL | 0.01 µg/mL | – | 0.151 µg/mL | 0.084 µg/mL | 0.023 µg/mL | 0.018 µg/mL | 0.114 µg/mL | 0.017 µg/mL | 6.3 µg/mL | 0.023 µg/mL | –
B9 | – | – | 0.014 µg/mL | 0.094 µg/mL | 0.027 µg/mL | 0.182 µg/mL | 0.014 µg/mL | – | 0.1 µg/mL | 0.172 µg/mL | 0.033 µg/mL | 0.019 µg/mL | 0.152 µg/mL | 0.021 µg/mL | 41.7 µg/mL | 0.026 µg/mL | –
